Source: patent US20110014669A1, “Production of 1,4 Butanediol in a Microorganism” (Microbia, Inc., priority 2009, published 2011)

What was measured:
Set-up in all cases: key: +: measureable activity detected in the assay; −: no measurable activity detected in the assay
5-hydroxy-L-norvaline = test: Enzyme assay, aminotransferase (step A4), cell lysates; type: biochemical; details: BDO biosynthetic pathway step A4
Description: (§1) Enzyme expression and crude lysate preparation. The enzymatic activity of each candidate enzyme is evaluated, first in E. coli and subsequently in C. glutamicum. It will be apparent to one of skill in the art that the expression and lysate preparations may need to be modified depending on the host cell and recombinant gene of interest.
(§2) E. coli: E. coli strains transformed with expression clones, for example, pUC18 or MB4124 based clones having a medium strong constitutive promoter regulating the recombinant gene of interest, are grown aerobically in LB medium (Difco) containing the appropriate antibiotic(s). At an OD600 of 0.5, IPTG is added to a final concentration of 0.25 mM. The cultures are grown to a final OD600 of 1.5 at which time the cells are collected and harvested by centrifugation. Cell pellets are resuspended in BugBuster (Novagen) reagent containing benzonase and lysozyme. Alternatively, E. coli strains transformed with expression clones, are grown overnight aerobically at 37° C. in BHI containing the appropriate antibiotic(s). 300 μL of fresh overnight culture is used to inoculate 2.7 mL BHI containing 0.25 mM IPTG and the appropriate antibiotic. The cultures are grown aerobically for 4-5 hours at 37° C. at which time the cells are collected and harvested by centrifugation. Cell pellets are frozen at −80° C. for at least 15 minutes, then thawed and resuspended in BugBuster (Novagen) reagent. Lysis and lysate collection are performed according to the manufacturer's instructions and, for example, may involve use of a sonicator and/or French press. Cleared lysates are stored on ice until enzyme assays are performed.
C. glutamicum: C. glutamicum strains transformed with MB4124 expression clones containing the recombinant gene of interest are grown aerobically in BHI broth supplemented with the proper antibiotic(s). At an OD600 of 0.5, IPTG is added to a final concentration of 0.25 mM. The cultures are grown to a final OD600 of 1.5 at which time the cells are collected and harvested by centrifugation. The pellet is washed once in one volume of water and resuspended in lysis buffer (1.0 ml 1.0 M HEPES buffer, pH 7.5, 0.5 ml 1M KOH, 10 μl 0.5M EDTA, protease inhibitor cocktail, water to 5 ml; the final pH will vary depending on the individual enzyme being tested) and one volume of 0.1 mm acid washed glass beads. The mixture is repeatedly alternately vortexed and held on ice for 15 seconds, eight times. After centrifugation for 5 min at 4,000 rpm, the supernatant lysate is removed and respun for 20 min at 10,000 rpm. Alternatively, C. glutamicum strains transformed with MB4124 expression clones containing the recombinant gene of interest are grown aerobically overnight in BHI broth supplemented with the proper antibiotic(s). Five mL of fresh overnight culture is used to inoculate 200 mL BHI containing 0.25 mM IPTG and the appropriate antibiotic. The cultures are grown aerobically at 30° C. for 5-7 hours at which time the cells are collected and harvested by centrifugation at 4° C. The pellet is resuspended in 15 mL ice cold 39 mM KH2PO4, 61 mM K2HPO4, 0.5 M KCl and lysed using a BioSpec BeadBeater and following the manufacturer's instructions. […]
Protein Assays. Protein concentrations in lysates are determined according to the methods of Bradford et al. (Anal. Biochem. 72:248-254 [1976]) or by the method of Smith et al. (Anal. Biochem. 150(1):76-85 [1985]) and lysates are assayed according to the methods below. […]

[1] = test system: 5-hydroxy-2-oxopentanoate; test: In vitro substrate conversion assay, step A5; type: biochemical; details: BDO biosynthetic pathway step A5
Description: In Vitro Substrate Conversion. Most of the enzyme assays described above are based on recording changes in absorbance at a given wavelength. In addition to such spectrophotometric readouts, these assays can also be analyzed by more direct methods using an endpoint assay where the reaction is terminated after a given period of time and the mixture is analyzed via HPLC or LC-MS methods.
(§3) The aldehyde dehydrogenase linked reaction was used for step A5.

[2] = test system: 5-hydroxy-2-oxopentanoate; test: Enzyme assay, decarboxylase (step A5), aldehyde dehydrogenase linked reaction; type: biochemical; details: BDO biosynthetic pathway step A5
Description: as §1, §2
C. glutamicum: C. glutamicum strains transformed with MB4124 expression clones containing the recombinant gene of interest are grown aerobically in BHI broth supplemented with the proper antibiotic(s). At an OD600 of 0.5, IPTG is added to a final concentration of 0.25 mM. The cultures are grown to a final OD600 of 1.5 at which time the cells are collected and harvested by centrifugation. The pellet is washed once in one volume of water and resuspended in lysis buffer (1.0 ml 1.0 M HEPES buffer, pH 7.5, 0.5 ml 1M KOH, 10 μl 0.5M EDTA, protease inhibitor cocktail, water to 5 ml; the final pH will vary depending on the individual enzyme being tested) and one volume of 0.1 mm acid washed glass beads. The mixture is repeatedly alternately vortexed and held on ice for 15 seconds, eight times. After centrifugation for 5 min at 4,000 rpm, the supernatant lysate is removed and respun for 20 min at 10,000 rpm. Alternatively, C. glutamicum strains transformed with MB4124 expression clones containing the recombinant gene of interest are grown aerobically overnight in BHI broth supplemented with the proper antibiotic(s). Five mL of fresh overnight culture is used to inoculate 200 mL BHI containing 0.25 mM IPTG and the appropriate antibiotic. The cultures are grown aerobically at 30° C. for 5-7 hours at which time the cells are collected and harvested by centrifugation at 4° C. The pellet is resuspended in 15 mL ice cold 39 mM KH2PO4, 61 mM K2HPO4, 0.5 M KCl and lysed using a BioSpec BeadBeater and following the manufacturer's instructions. The lysate is centrifuged at 16,000 RPM at 4° C. for 30 minutes and the supernatant retained on ice as the extract.
Protein Assays. Protein concentrations in lysates are determined according to the methods of Bradford et al. (Anal. Biochem. 72:248-254 [1976]) or by the method of Smith et al. (Anal. Biochem. 150(1):76-85 [1985]) and lysates are assayed according to the methods below.
Enzyme Assays. Enzyme assays are performed on the cell lysates prepared above. The activity for each recombinant enzyme is compared to a lysate from a vector only control culture which is generated in a fashion identical to the recombinant enzyme lysate. […]

[3] = test system: 5-hydroxy-2-oxopentanoate; test: Bioconversion (feeding) assay, step A5; type: cell-based; details: BDO biosynthetic pathway step A5
Description: Bioconversion assays. The activity of a candidate enzyme towards a given substrate can also be evaluated in vivo using a simple feeding assay. A strain expressing the candidate enzyme is grown in the presence of the substrate for which activity is desired. Samples of the culture are removed periodically and the cells are removed via centrifugation. The culture supernatant is then analyzed (e.g., by LC-MS) to determine how much of the substrate has been removed and how much of a given product is present.
as §3

Row | Molecule | Enzyme Assay (5-hydroxy-L-norvaline) | In Vitro Substrate Conversion Assay [1] | Enzyme Assay [2] | Bioconversion Assay [3]
1 | BATlY1: Enzyme candidate for BDO biosynthetic pathway step A4, SEQ ID NO. 31 (protein, listed as Yarrowia lipolytica) MLRNNLRSLSRAFSTSSMRLGAGMDASKLQITKTKSPKEKQAPKDLIFGHTFTDHMLTVEWTAKDGWAAPQITPYGPLELDPSAVVLHYAFECFEGLKAYKDESGNVRLFRVDKNMHRMNTSAERICLPEFDGAEAAKLIGQLAKLDSAWIPEGRGYSMYLRPSLIGTTAALGVGTPDKALFYVIASPVGPYYPTGFKAVKLEATDYAVRAWPGGVGNKKLGANYAPCIKPQQQAASRGYQQNLWLFGDEGNITEVGTMNAFFVFERNGKKELVTAPLDGTILEGVTRDSILELARERLPSADWIVSERYCTIKEVAEAAEKGELVEAFGAGTAAVVSPIKEIGWGEKTINIPLQPGKEAGKLTETVNEWIGDIQYGKDEYKGWSKVV | − |  |  | 
2 | PdcZm: Enzyme candidate for BDO biosynthetic pathway step A5, SEQ ID NO. 38 (protein, listed as Zymomonas mobilis) MSYTVGTYLAERLVQIGLKHHFAVAGDYNLVLLDNLLLNKNMEQVYCCNELNCGFSAEGYARAKGAAAAVVTYSVGALSAFDAIGGAYAENLPVILISGAPNNNDHAAGHVLHHALGKTDYHYQLEMAKNITAAAEAIYTPEEAPAKIDHVIKTALREKKPVYLEIACNIASMPCAAPGPASALFNDEASDEASLNAAVEETLKFIANRDKVAVLVGSKLRAAGAEEAAVKFADALGGAVATMAAAKSFFPEENPHYIGTSWGEVSYPGVEKTMKEADAVIALAPVFNDYSTTGWTDIPDPKKLVLAEPRSVVVNGIRFPSVHLKDYLTRLAQKVSKKTGALDFFKSLNAGELKKAAPADPSAPLVNAEIARQVEALLTPNTTVIAETGDSWFNAQRMKLPNGARVEYEMQWGHIGWSVPAAFGYAVGAPERRNILMVGDGSFQLTAQEVAQMVRLKLPVIIFLINNYGYTIEVMIHDGPYNNIKNWDYAGLMEVFNGNGGYDSGAGKGLKAKTGGELAEAIKVALANTDGPTLIECFIGREDCTEELVKWGKRVAAANSRKPVNKLL |  | − | − | −
3 | BioACg: Enzyme candidate for BDO biosynthetic pathway step A4, SEQ ID NO. 29 (protein, listed as Corynebacterium glutamicum) MENPSLRELDHRNIWHPYAAPGVRNRLVTKTDGVFLTLEDGSTVIDAMSSWWSAIHGHGHPRLKAAAQKQIDTMSHVMFGGLTHEPAIKLTHKLLNLTGNSFDHVFYSDSGSVSVEVAIKMALQASKGQGHPERTKLLTWRSGYHGDTFTAMSVCDPENGMHSLWKGTLPEQIFAPAPPVRGSSPQAISEYLRSMELLIDETVSAIIIEPIVQGAGGMRFHDVALIEGVATLCKKHDRFLIVDEIATGFGRTGELFATLSNGLQPDIMCVGKALTGGFMSFAATLCTDKVAQLISTPNGGGALMHGPTFMANPLACAVSHASLEIIETGMWQKQVKRIEAELIAGLSPLQHLPGVADVRVLGAIGVIEMEQNVNVEEATQAALDHGVWIRPFGRLLYVMPPYITTSEQCAQICTALHAAVKGK | − |  |  | 
4 | PdcSs: Enzyme candidate for BDO biosynthetic pathway step A5, SEQ ID NO. 41 (protein, listed as Staphylococcus saprophyticus) MKKRVGQYLMDCISDVGVDKVFGVPGDFNLTFLDDIISRDDMEWIGNTNELNASYAADGYARMKGIAAMVTTFGVGELSAVNGIAGSYAERVPVIQITGAPTRAVESAGKYVHHSLGEGNFDDYRNMYASITTAQAYITPENAQSEIPRVINAALYEKRPVHIHLPIDVANSEIDVATPFEIEQRPQTDVTKYMTMVKDKLQSADKPVIITGHEINSFKLHEKLEQFVKQSQIPVVQLSLGKGAFNETSPYYMGIYDASLAEEDIRNYVDQSDAILNIGAKLTDSATAGYSYQFDIDDVVMINHHHFKMNETKDTEVSLVDLLDGLNAINYVNNAEFPKFKQPKAHDYDLTDEPLTQETYFKMMQDFIREEDVILAEQGTSFFGAYDLALKHNNKFIGQPLWGSIGYTLPATLGTQMADTSRRNLLLIGDGSLQLTVQEISTMIREKIKPIIFVINNDGYTVERKIHGENAMYNDIKMWDYKLLPTVFGGKDEVQVHDVNTSEAFQKVLLQIEAQPDTMHFIEVKMGVHDAPHKLNAIGQAFAKQNG |  | − | − | −
5 | IlvECg: Enzyme candidate for BDO biosynthetic pathway step A4, SEQ ID NO. 28 (protein, listed as Corynebacterium glutamicum) MYLSGSRCTLKSMTSLEFTVTRTENPTSPDRLKEILAAPKFGKFFTDHMVTIDWNESEGWHNAQLVPYAPIPMDPATTVFHYGQAIFEGIKAYRHSDETIKTFRPDENAERMQRSAARMAMPQLPTEDFIKALELLVDADQDWVPEYGGEASLYLRPFMISTEIGLGVSPADAYKFLVIASPVGAYFTGGIKPVSVWLSEDYVRAAPGGTGDAKFAGNYAASLLAQSQAAEKGCDQVVWLDAIEHKYIEEMGGMNLGFIYRNGDQVKLVTPELSGSLLPGITRKSLLQVARDLGYEVEERKITTTEWEEDAKSGAMTEAFACGTAAVITPVGTVKSAHGTFEVNNNEVGEITMKLRETLTGIQQGNVEDQNGWLYPLVG | − |  |  | 
6 | PdcBc: Enzyme candidate for BDO biosynthetic pathway step A5, SEQ ID NO. 42 (protein, listed as Bacillus cereus) MKKQYTVSTYLLDRLHELGIEHIFGVPGDYNLAFLDDVVAHENLKWIGNCNELNAAYAADGYARIKGIAALITTFGVGELSAINGIAGSYAENVPVIKITGTPPTKVMENGAIVHHTLGDGKFDHFSNMYREITVAQTNVTPEHAAEEIDRVLRACWNEKRPVHINLPIDVYNKPINKPTEPIINKPILSNKEALNKMLLHAISKINSAKKPVILADFEVDRFHAKENLHQFVEKTGFPIATLSMGKGIFPEKHPQFIGIYTGDVSSPYLRKRIDESDCIISIGVKLTDTITGGFTQGFTKEQVIEIHPYTVKIIDKKYGPVVMQDVLQHLSDSIEHRNKDTLDVKPFILESSPFTEEFIPKAQMVTQKRFWQQMYHFLQENDVLIVEQGTPFFGSSAIPLPNNTAYVGQPLWGSIGYTLPALLGTQLANLSRRNILIIGDGSFQVTAQELSTILRQNLKPIIFLINNNGYTVERAIHGQNQLYNDIQMWDYNKLSMVFGAEEKSLTFKVENEAELAAVLTNITFNKNQLIFIEVIMSQSDQPELLAKLGKRSGQQNS |  | − | − | −
7 | BcaTLp: Enzyme candidate for BDO biosynthetic pathway step A4, SEQ ID NO. 34 (protein, listed as Lactobacillus plantarum) MADVQLDWNNLGFEYRNLPYRYRAYWKDGAWYKKELTGDATLHISEGSTALHYGQQDFEGLKAYRTKDGSVQLFRPDRNAARMQTSCERLLMPQVPTDMFVDAVKQVVKANQDYVPPYGTGATLYLRPLMIGVGGNIGVHPAQEYIFTVFAMPVGSYFKGGMTPTNFTTSEYDRAAHKGTGAYKVGGNYAASLFPGQEAHANGFSDCVYLDPVEHRKIEEVGSANFFGITKDGTFVTPKSPSILPAVTKYSLLYLAEHKFGMKTEQGDVYIDDLDRFAEAGACGTAAVISPIGGLEHQGKLHVFYSETEVGPVTKKLYDELTGIQFGDREAPEGWVQKVELD | − |  |  | 
